Experimental data taken from US9200265B2, “Anti-cocaine compositions and treatment” (priority 2006, dated 2015).
Where two headings read alike, the source gives them in different places.

What was measured:
CocE [1] = target: T1, CocE (Rhodococcus sp., UniProt Q9L9D7); test: Inhibition of CocE (cleavage of 4-nitrophenyl acetate); type: biochemical, Rhodococcus sp. MB 1
T1 construct: generating a full-length CocE gene encoding the T172R mutation; His6 (C); made in house; host or cells: E. coli (pET-22b(+))
Description: (§1) Benzoic acid prevented 37° C.-induced formation of high molecular weight CocE aggregates (0.1 mg/ml enzyme concentrations) (see, e.g., FIG. 35). Benzoic acid (uM quantities) stabilized 37° C.-induced activity loss (see, e.g., FIG. 36), although the mechanism of this stabilization is complicated due to substrate inhibition at higher concentrations.
CocE catalyzes the cleavage of 4-nitrophenyl acetate (4NPA) to 4-nitrophenol (4NP) and acetate. The cleavage reaction was monitored by observation of product formation at 400 nm. Both 4NP and 4NPA (mM range) prevented 37° C.-induced formation of high molecular weight CocE aggregates (0.1 mg/ml enzyme concentrations).

CocE [2] = target: T1, CocE; test: Stabilization of 37° C.-induced CocE activity loss; type: biochemical, Rhodococcus sp. MB 1; conditions: uM quantities
Excerpt: (§2) Cocaine esterase (CocE) cleaves cocaine to produce Benzoic acid and Ecgonine methyl ester. Briefly, alternative substrates and inhibitors of cocaine, as well as compounds able to thermostabilize the enzyme, were investigated generally by substituting amide and thiol analogues at the reactive ester bond, or removing the bond (for inhibitors), substituting benzoyl analogues in place of the benzoic acid leaving group, and/or removing or altering the methyl-ester group on the ecgonine portion of the molecule. As discussed below, it was determined that some substrates, products, and inhibitors stabilized thermal denaturation of wild type CocE, as well as prevented thermally-induced aggregation in gel electrophoresis.
as §1, with “Cocaine is the natural substrate of Cocaine esterase (CocE). Cocaine cleavage was monitored by a drop in absorbance at 240 nm. Cocaine (mM range)” for “Benzoic acid”, “33). Cocaine” for “35). Benzoic acid”, “34),” for “36),”

CocE [3] = target: T1, CocE; test: Stabilization against 37° C.-induced formation of high molecular weight CocE aggregates (gel); type: physicochemical, Rhodococcus sp. MB 1; conditions: 0.1 mg/ml enzyme, mM range
Description: Plasmids containing the mutations were transformed into E. coli BL21 cells and IPTG-induced enzyme was purified on Ni-Agarose. Expressed proteins were then tested for enzymatic activity and for thermostability at 37° C. Enzyme activity was measured using the spectrophotometric assay as described in Example 1. Thermostability was also tested via the spectrophotometric assay by pre-incubation of both wild-type and mutants at 37° C. for various times. Additionally, the nature of the thermo-instability of both the wild-type and T172R mutant was analyzed by polyacrylamide gel electrophoresis under denaturing and non-denaturing conditions. Briefly, mutant and wild-type enzyme at 0.1 mg/ml were incubated at 37° C. for various time-points, cooled to 4° C., mixed with SDS-loading dye containing-mercaptoethanol and run on 10% SDS-PAGE gels (denaturing conditions) or run on native 10% polyacrylamide gels (non-denaturing conditions) at 4° C. Gels were fixed with 10% methanol, 7% acetic acid for 30 minutes, and then stained with Sypro-Ruby protein gel stain (Molecular Probes, Invitrogen) for 3 hours. Protein staining was visualized under UV-light using an AlphaImager™ 3400 (Alpha Innotech). Finally, the exact melting temperature of both the wild-type and T172R mutant were determined by circular dichroism using a JASCO-810 spectropolarimeter driven by a JASCO V500/FP-750 analysis program for Windows. The CD spectra were measured in millidegrees and normalized against PBS buffer.
as §2
as §1, with “Cocaine is the natural substrate of Cocaine esterase (CocE). Cocaine cleavage was monitored by a drop in absorbance at 240 nm. Cocaine (mM range)” for “Benzoic acid”, “33). Cocaine” for “35). Benzoic acid”, “34),” for “36),”

[4] = humans; cited from earlier work
[5] = test system: cocaine-induced lethality; test: Cocaine toxicity in mice, incl. repeated CocE doses; type: in vivo, mouse
Excerpt: The animal toxicity model was similar to that described previously, except as described. Male NIH Swiss mice were used. For tail intravenous injection, mice are placed in a small restraint chamber that exposes their tail. A heat lamp with an infrared, 250 w bulb is placed about 4 inches from the tail, and left for a couple of minutes. The tail is then cleansed with an alcohol wipe and a 30 G ½ precision glide needle (Fisher Scientific), is inserted into one of the side veins for infusion. To verify whether the needle is in the vein a small amount of drug is infused, if in the correct location the solution should infuse easily without any indication of an incorrect subcutaneous location, which appears white at the site of injection. For intravenous catheterization, Male NIH Swiss mice are anesthetized with ketamine 100 mg/kg and xylazine 10 mg/kg co-administered i.p. When mice are no longer responsive to paw pressure, the neck is shaved and prepped by alternating Betadine and alcohol wipes. Under clean conditions, a right transverse neck incision is made and the external jugular vein is isolated. A catheter is inserted into the vein with the aid of a dissecting microscope to the level of the right atrium, and is secured in the vein with nylon, 4-0 sutures and tissue adhesive, 3M Vetbond (3M Animal Care Products, St. Paul, Minn.). The catheters are a short length of Tygon tubing with an inner diameter of 0.010 in. and an outer diameter of 0.030 in. (Small Parts, Inc., Miami Lakes, Fla.). A small incision is made in the middle of the animal's back, and a trocar inserted subcutaneously to exit at the ventral incision site. The catheter is then pulled through the trocar and brought out the animal's back where it is held in place with nylon suture material and the tissue adhesive. A short piece of steel wire with a diameter of 0.011 in. (Small Parts, Inc., Miami Lakes, Fla.) is inserted into the end of the catheter. The ventral incision is closed with 4-0 Vicryl suture material and the mouse placed under a heat lamp for recovery. Approximately an hour later, the mouse is returned to its home cage.
Mice that survived a first administration of the combination of 0.32 mg CocE and 320 mg/kg cocaine were given this combination again, 14 days following the initial administration.

[6] = cited from earlier work
[7] = test system: cocaine-induced lethality; test: Rodent model of acute cocaine toxicity (convulsions and lethality) in rats
[8] = Cocaine blood levels and lethal concentrations in the rat (literature)
[9] = against (-) cocaine; cited from earlier work
[10] = test system: cocaine-induced lethality; conditions: rats; cited from earlier work
[11] = Gel filtration of samples incubated at 37° C.; type: physicochemical
Description: Higher Km values on day 3 were due to reuse of old cocaine.
Protection from aggregation of thermal stable CocE mutants was assessed using size exclusion chromatography. Briefly, enzymes were preincubated at 37° C. for 0 minutes or 60 minutes and resolved by size exclusion chromatography.

[12] = Cocaine spectrophotometric assay (240 nm), Michaelis-Menten kinetics
[13] = CocE activity recovered after pegylation (initial rates of cocaine hydrolysis); conditions: m-PEG 5.5 KDa, preliminary

Q: What does the source list for `O=C(O)c1ccccc1` [Benzoic acid]?
A: Ki (CocE [1]): 310 µM; 37° C.-induced activity loss (CocE [2]): stabilized; 37° C.-induced formation of high molecular weight CocE aggregates (CocE [3]): prevented

Q: What does the source list for `COC(=O)[C@H]1[C@@H](OC(=O)c2ccccc2)C[C@@H]2CC[C@H]1N2C` [cocaine]?
A: lethal concentrations [4]: 20 to 200 µM; time to death ([5]; 180 mg/kg i.p. cocaine alone, mice): about 3 min; time of peak plasma levels ([6]; after an intraperitoneal injection): about 13 minutes; lethal blood concentrations ([6]; rat): 50 to 128 µM; animals in which death was observed ([7]; 100 mg/kg cocaine, rats): 100%; time to death after administration ([7]; 100 mg/kg cocaine, rats): less than 15 minutes; estimated peak cocaine blood concentration ([8]; 100 mg/kg cocaine i.p.): 35 µM; estimated peak cocaine blood concentration ([8]; 320 mg/kg cocaine i.p.): 113 µM

B1: BChE: serum butyrylcholinesterase (protein, UniProt P06276 29-602, looked up)
Cholinesterase: EDDIIIATKNGKVRGMNLTVFGGTVTAFLGIPYAQPPLGRLRFKKPQSLTKWSDIWNATKYANSCCQNIDQSFPGFHGSEMWNPNTDLSEDCLYLNVWIPAPKPKNATVLIWIYGGGFQTGTSSLHVYDGKFLARVERVIVVSMNYRVGALGFLALPGNPEAPGNMGLFDQQLALQWVQKNIAAFGGNPKSVTLFGESAGAASVSLHLLSPGSHSLFTRAILQSGSFNAPWAVTSLYEARNRTLNLAKLTGCSRENETEIIKCLRNKDPQEILLNEAFVVPYGTPLSVNFGPTVDGDFLTDMPDILLELGQFKKTQILVGVNKDEGTAFLVYGAPGFSKDNNSIITRKEFQEGLKIFFPGVSEFGKESILFHYTDWVDDQRPENYREALGDVVGDYNFICPALEFTKKFSEWGNNAFFYYFEHRSSKLPWPEWMGVMHGYEIEFVFGLPLERRDNYTKAEEILSRSIVKRWANFAKYGNPNETQNNSTSWPVFKSTEQKYLTLNTESTRIMTKLRAQQCRFWTSFFPKVLEMTGNIDEAEWEWKAGFHRWNNYMMDWKNQFNDYTSKKESCVGL
Q: With B1 as the molecule, how does the “change in the dose of cocaine necessary to kill the mice” value ([5]; 1 mg) read?
A: Its value is “slight increase”.

Q: What about the time to death ([5]; 1 mg) of the same molecule?
A: Its time to death is “not modified”.

Q: And the Kcat [9]?
A: The Kcat was 0.0683 s⁻¹.

Q: What about the Km [9] of the same molecule?
A: The Km was 4.5 µM.

Q: What about the “protection against cocaine-induced lethality” value ([7]; 13 mg (10-times molar equivalent dose), one minute before 180 mg/kg cocaine) of the same molecule?
A: Its value is “no protection”.

Q: And the “treatment required for protection against an LD50 dose of cocaine” value [10]?
A: Its value is 10 mg/kg.

B2: N197K (protein)
chain: MVDGNYSVASNVMVPMRDGVRLAVDLYRPDADGPVPVLLVRNPYDKFDVFAWSTQSTNWLEFVRDGYAVVIQDTRGLFASEGEFVPHVDDEADAEDTLSWILEQAWCDGNVGMFGVSYLGVTQWQAAVSGVGGLKAIAPSMASADLYRAPWYGPGGALSVEALLGWSALIGTGLITSRSDARPEDAADFVQLAAILKDVAGAASVTPLAEQPLLGRLIPWVIDQVVDHPDNDESWQSISLFERLGGLATPALITAGWYDGFVGESLRTFVAVKDNADARLVVGPWSHSNLTGRNADRKFGIAATYPIQEATTMHKAFFDRHLRGETDALAGVPKVRLFVMGIDEWRDETDWPLPDTAYTPFYLGGSGAANTSTGGGTLSTSISGTESADTYLYDPADPVPSLGGTLLFHNGDNGPADQRPIHDRDDVLCYSTEVLTDPVEVTGTVSARLFVSSSAVDTDFTAKLVDVFPDGRAIALCDGIVRMRYRETLVNPTLIEAGEIYEVAIDMLATSNVFLPGHRIMVQVSSSNFPKYDRNSNTGGVIAREQLEEMCTAVNRIHRGPEHPSHIVLPIIKRLEHHHHHH
modifications: Mutant CocE polypeptide
Q: Which results are given for B2?
A: gel filtration result [11]: formation of aggregates; Km ([12]; Day 0, (0) at 37° C.): 34.8 µM; Km ([12]; Day 0, (60) at 37° C.): 24.2 µM; Km ([12]; Day 3 repeat, (0), old cocaine reused): 102 µM; Km ([12]; Day 3 repeat, (60), old cocaine reused): 114 µM; stability after 1 hour at 37° C. ([12]; day 0, preliminary): good stability

B3: PEG-CocE: wild-type CocE linked with monomethoxy-PEG polymers (MW 5.5 KDa), mixture with 1 to 4 PEG chains (conjugate, UniProt Q9L9D7 1-574, looked up)
Cocaine esterase: MVDGNYSVASNVMVPMRDGVRLAVDLYRPDADGPVPVLLVRNPYDKFDVFAWSTQSTNWLEFVRDGYAVVIQDTRGLFASEGEFVPHVDDEADAEDTLSWILEQAWCDGNVGMFGVSYLGVTQWQAAVSGVGGLKAIAPSMASADLYRAPWYGPGGALSVEALLGWSALIGTGLITSRSDARPEDAADFVQLAAILNDVAGAASVTPLAEQPLLGRLIPWVIDQVVDHPDNDESWQSISLFERLGGLATPALITAGWYDGFVGESLRTFVAVKDNADARLVVGPWSHSNLTGRNADRKFGIAATYPIQEATTMHKAFFDRHLRGETDALAGVPKVRLFVMGIDEWRDETDWPLPDTAYTPFYLGGSGAANTSTGGGTLSTSISGTESADTYLYDPADPVPSLGGTLLFHNGDNGPADQRPIHDRDDVLCYSTEVLTDPVEVTGTVSARLFVSSSAVDTDFTAKLVDVFPDGRAIALCDGIVRMRYRETLVNPTLIEAGEIYEVAIDMLATSNVFLPGHRIMVQVSSSNFPKYDRNSNTGGVIAREQLEEMCTAVNRIHRGPEHPSHIVLPIIKR
modifications: monomethoxy-PEG 5.5 kDa, 1-4 chains
Q: For B3, which “initial CocE activity recovered after the pegylation reaction” value [13] is on record?
A: The value was > 70%.
